Test results taken from patent US20220378955A1 (ACTINIUM PHARMACEUTICALS, published 2022).

T1: human CD45 (human, UniProt P08575 26-1306)
T1 construct: whole, on cells; BC8 is said to recognize all human isoforms; also called leukocyte common antigen (LCA); T200
T1 sequence (looked up): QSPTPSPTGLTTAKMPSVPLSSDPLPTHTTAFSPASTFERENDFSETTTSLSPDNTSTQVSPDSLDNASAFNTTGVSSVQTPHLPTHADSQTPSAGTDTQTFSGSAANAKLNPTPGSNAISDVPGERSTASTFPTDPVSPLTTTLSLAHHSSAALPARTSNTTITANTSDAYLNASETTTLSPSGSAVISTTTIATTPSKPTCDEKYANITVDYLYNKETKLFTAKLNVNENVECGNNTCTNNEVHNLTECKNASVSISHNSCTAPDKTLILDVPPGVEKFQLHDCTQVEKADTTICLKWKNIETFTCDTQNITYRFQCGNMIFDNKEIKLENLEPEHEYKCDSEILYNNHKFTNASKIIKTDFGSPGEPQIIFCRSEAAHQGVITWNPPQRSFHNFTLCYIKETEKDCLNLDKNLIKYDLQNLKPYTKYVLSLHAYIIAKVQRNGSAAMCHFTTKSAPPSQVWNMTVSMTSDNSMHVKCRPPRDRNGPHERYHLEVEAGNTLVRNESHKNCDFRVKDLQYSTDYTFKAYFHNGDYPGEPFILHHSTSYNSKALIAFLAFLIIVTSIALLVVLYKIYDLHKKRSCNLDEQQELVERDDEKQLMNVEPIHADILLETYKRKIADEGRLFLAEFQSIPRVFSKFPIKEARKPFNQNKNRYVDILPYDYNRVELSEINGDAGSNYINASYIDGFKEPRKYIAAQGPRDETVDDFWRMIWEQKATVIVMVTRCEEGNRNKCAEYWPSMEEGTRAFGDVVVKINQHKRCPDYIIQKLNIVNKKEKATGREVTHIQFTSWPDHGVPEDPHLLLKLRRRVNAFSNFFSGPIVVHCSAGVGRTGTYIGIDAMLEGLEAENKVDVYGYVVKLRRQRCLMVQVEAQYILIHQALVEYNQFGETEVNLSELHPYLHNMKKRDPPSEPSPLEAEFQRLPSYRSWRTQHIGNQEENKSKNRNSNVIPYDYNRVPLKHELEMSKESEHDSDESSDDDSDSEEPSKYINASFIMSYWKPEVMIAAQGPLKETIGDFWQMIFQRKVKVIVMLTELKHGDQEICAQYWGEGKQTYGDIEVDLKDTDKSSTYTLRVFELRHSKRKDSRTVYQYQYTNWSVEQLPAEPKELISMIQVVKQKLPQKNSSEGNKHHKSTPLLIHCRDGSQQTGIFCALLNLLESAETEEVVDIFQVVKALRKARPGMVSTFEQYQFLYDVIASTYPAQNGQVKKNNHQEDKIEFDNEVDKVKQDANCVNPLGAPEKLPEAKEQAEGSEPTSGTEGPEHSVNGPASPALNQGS

B1: DOTA-BC8 (BC8 conjugated with p-SCN-Bn-DOTA, batch A) (antibody, V domains shown)
VH: EVKLLESGGGLVQPGGSLKLSCAASGFDFSRYWMSWVRQAPGKGLEWIGEINPTSSTINFTPSLKDKVFISRDNAKNTLYLQMSKVRSEDTALYYCARGNYYRYGDAMDYWGQGTSVTVS
VL: DIALTQSPASLAVSLGQRATISCRASKSVSTSGYSYLHWYQQKPGQPPKLLIYLASNLESGVPARFSGSGSGTDFTLNIHPVEEEDAATYYCQHSRELPFTFGSGTKLEIKR
modifications: p-SCN-Bn-DOTA conjugated, sites not stated; p-SCN-Bn-DOTA conjugated, about 1.5 DOTA per antibody (batch A), sites not stated; Asn-141 partly deamidated to Asp
notes: Chelator conjugate of murine IgG1 BC8; also called unlabeled DOTA-BC8

Experiments:
mouse CD45 (mouse) = mouse CD45 (mouse) (UniProt P06800); experiment: CD45+ cell-based binding assay of radiolabeled antibody
human CD45 = target: T1, human CD45; experiment: flow cytometry on Cytotrol cells, against naïve BC8 as reference
From the text: Cytotrol cells (Beckman Coulter) were initially used to determine the binding of naïve BC8 antibody to those cells versus control 18B7 antibody (nonspecific control antibody against the fungal polysaccharide glucuronoxylomannan) by flow cytometry (FIG. 13A). The cells were taken up in RPMI medium, and the secondary antibody was PE labeled rat anti-mouse IgG1 from Biolegend.
Finally, we performed the side by side comparison of the binding of DOTA-BC8 sample to Cytotrol cells by flow cytometry (FIG. 14B), followed by immediate radiolabeling of the same sample with ²²⁵Ac and binding of the radiolabeled sample to Cytotrol cells (FIG. 14A). The binding of the DOTA-BC8 to the cells by flow cytometry (around 60% of the naïve BC8 binding) matched that of radiolabeled ²²⁵Ac-DOTA-BC8 to Cytotrol cells.

Sequence of mouse CD45 (mouse) (P06800 26-1293): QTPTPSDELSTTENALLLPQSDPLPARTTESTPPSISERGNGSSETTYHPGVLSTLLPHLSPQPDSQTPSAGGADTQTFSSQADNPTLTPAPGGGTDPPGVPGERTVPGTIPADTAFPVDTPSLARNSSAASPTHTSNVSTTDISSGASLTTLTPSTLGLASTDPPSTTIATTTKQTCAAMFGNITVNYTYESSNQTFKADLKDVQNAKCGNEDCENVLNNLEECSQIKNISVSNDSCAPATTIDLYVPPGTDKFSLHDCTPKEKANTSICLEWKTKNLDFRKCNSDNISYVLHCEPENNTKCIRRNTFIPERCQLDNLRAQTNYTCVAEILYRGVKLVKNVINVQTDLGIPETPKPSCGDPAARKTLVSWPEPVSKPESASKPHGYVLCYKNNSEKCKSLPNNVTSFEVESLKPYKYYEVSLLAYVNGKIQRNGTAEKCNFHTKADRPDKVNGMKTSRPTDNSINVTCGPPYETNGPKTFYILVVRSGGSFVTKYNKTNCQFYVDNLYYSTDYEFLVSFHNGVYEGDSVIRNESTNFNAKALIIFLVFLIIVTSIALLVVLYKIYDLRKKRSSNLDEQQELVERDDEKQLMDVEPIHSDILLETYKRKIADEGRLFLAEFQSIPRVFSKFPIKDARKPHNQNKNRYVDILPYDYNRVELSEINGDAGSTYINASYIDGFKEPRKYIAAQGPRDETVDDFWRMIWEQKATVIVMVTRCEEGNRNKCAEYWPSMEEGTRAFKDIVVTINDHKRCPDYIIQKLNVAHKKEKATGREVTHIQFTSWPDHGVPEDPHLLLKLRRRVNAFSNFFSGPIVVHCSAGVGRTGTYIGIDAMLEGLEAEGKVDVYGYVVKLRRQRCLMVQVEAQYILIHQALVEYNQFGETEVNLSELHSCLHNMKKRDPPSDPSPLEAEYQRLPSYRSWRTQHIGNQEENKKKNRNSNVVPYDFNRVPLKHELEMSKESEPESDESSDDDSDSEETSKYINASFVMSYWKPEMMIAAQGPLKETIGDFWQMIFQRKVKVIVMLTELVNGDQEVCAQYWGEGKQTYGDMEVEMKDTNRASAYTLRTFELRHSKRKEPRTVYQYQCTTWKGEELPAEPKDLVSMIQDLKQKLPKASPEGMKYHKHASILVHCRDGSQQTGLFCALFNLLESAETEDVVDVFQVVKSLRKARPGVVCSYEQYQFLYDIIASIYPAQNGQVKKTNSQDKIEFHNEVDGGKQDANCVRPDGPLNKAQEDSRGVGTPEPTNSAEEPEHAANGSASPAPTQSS

Molecule	immunoreactivity (mouse CD45 (mouse)) [%]	binding relative to naïve BC8 (human CD45) [%]	immunoreactivity relative to naïve BC8 (human CD45) [%]
^131I-labeled anti-mouse pan-CD45 antibody 30F11	> 95		
^177Lu-labeled anti-mouse pan-CD45 antibody 30F11	> 95		
B1		~60	~70
